Measurements as given in patent US20200024330A1.

Assays:
Assay in all cases: cell-based or functional assay
[1] = molecular target: HIV-1 92UG024 envelope protein (Env) on pseudovirus (HIV-1)
[2] = molecular target: HIV-1 94UG103 envelope glycoprotein (Env) (HIV-1)
[3] = molecular target: HIV-1 94UG103 envelope glycoprotein (Env) on pseudovirus (HIV-1)
[4] = molecular target: HIV-1 Env of isolate 92TH021 (HIV-1)
[5] = molecular target: HIV-1 Env of isolate 92UG046 (clade D) (HIV-1)
[6] = molecular target: HIV-1 MGRM-C-019 Env (HIV-1)
[7] = molecular target: HIV-1 MGRM-F1-008 Env (pseudovirus) (HIV-1)
[8] = molecular target: HIV-1 MGRM-F1-022 Env (pseudovirus) (HIV-1)
[9] = molecular target: HIV-1 MGRM-F1-023 Env (pseudovirus) (HIV-1)
[10] = molecular target: HIV-1 NL43 envelope protein (Env) on pseudovirus (HIV-1)
[11] = molecular target: HIV-1 Env of isolate 97ZA012 (HIV-1)
[12] = molecular target: HIV-1 Env of isolate MGRM-D-013 (HIV-1)
[13] = molecular target: HIV-1 Env of isolate MGRM-F1-014 (HIV-1)
[14] = molecular target: HIV-1 Env of isolate MGRM-F1-015 (HIV-1)
[15] = molecular target: HIV-1 Env of isolate MGRM-F1-020 (HIV-1)
[16] = molecular target: HIV-1 Env of isolate MGRM-G-027 (subtype G) (HIV-1)
[17] = molecular target: HIV-1 Env of isolate 92WR026 (HIV-1)
[18] = molecular target: HIV-1 Env of isolate 92UG046 (HIV-1)
[19] = molecular target: HIV-1 Env of isolate 92UG114 (HIV-1)
[20] = molecular target: HIV-1 Env of isolate MGRM-D-003 (HIV-1)
[21] = molecular target: HIV-1 Env of isolate 92UG001 (HIV-1)

Sequence of 1443_C16 (PG16) (TCN-116) (antibody) (VH): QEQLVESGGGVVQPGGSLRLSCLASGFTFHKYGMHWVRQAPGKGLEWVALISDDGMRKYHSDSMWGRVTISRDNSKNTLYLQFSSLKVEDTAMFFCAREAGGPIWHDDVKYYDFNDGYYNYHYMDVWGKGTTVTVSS
Sequence of 1443_C16 (PG16) (TCN-116) (antibody) (VL): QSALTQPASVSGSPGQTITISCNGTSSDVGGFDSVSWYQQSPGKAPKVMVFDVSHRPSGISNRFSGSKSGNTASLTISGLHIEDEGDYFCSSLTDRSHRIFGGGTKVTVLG
Sequence of PGT-144 (4970_K22) (antibody) (VH): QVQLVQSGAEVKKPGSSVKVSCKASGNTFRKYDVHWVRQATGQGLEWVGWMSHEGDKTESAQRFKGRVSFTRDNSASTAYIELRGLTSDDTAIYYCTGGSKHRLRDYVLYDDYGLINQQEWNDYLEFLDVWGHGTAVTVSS
Sequence of PGT-144 (4970_K22) (antibody) (VL): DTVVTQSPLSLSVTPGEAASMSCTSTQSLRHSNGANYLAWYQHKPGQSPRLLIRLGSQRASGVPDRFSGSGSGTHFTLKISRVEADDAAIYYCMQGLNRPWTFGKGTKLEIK
Sequence of PGT-141 (4964_G22; 4993_K13) (antibody) (VH): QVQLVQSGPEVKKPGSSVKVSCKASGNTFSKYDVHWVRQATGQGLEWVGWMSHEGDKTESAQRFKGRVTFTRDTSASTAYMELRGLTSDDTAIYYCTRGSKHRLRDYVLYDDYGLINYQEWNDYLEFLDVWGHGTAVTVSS
Sequence of PGT-141 (4964_G22; 4993_K13) (antibody) (VL): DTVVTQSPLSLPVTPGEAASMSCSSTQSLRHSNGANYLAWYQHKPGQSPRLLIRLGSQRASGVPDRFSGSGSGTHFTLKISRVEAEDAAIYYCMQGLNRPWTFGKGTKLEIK
Sequence of PGT-143 (4980_N08) (antibody) (VH): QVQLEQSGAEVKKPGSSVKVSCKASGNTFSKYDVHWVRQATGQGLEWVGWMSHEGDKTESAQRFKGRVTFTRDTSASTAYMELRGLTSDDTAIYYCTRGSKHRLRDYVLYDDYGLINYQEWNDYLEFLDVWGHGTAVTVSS
Sequence of PGT-143 (4980_N08) (antibody) (VL): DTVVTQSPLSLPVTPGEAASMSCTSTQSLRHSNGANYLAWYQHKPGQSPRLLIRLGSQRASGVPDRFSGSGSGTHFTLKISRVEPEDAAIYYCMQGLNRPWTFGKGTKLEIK
Sequence of PGT-142 (4995_E20) (antibody) (VH): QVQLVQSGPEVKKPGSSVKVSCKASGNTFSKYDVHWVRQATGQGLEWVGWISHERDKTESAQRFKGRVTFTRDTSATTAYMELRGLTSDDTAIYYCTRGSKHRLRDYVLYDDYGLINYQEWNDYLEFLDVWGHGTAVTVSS

Substance | neutralization IC50 [1] [µg/mL] | IC50 (µg/ml), pseudovirus neutralization [2] [µg/mL] | IC90 (pseudovirus neutralization) [3] [µg/mL] | IC50 (µg/ml), pseudovirus neutralization [4] [µg/mL] | IC50 (µg/ml), pseudovirus neutralization [5] [µg/mL] | IC50 [6] [µg/mL] | IC50 (µg/ml), pseudovirus neutralization [7] [µg/mL] | IC50 (µg/ml), pseudovirus neutralization [8] [µg/mL] | IC50 (µg/ml), pseudovirus neutralization [9] [µg/mL] | neutralization IC50 [10] [µg/mL] | neutralization IC50 [16] [µg/mL] | other results
2G12 (antibody) | 0.59 | 48.1 | > 50 | > 50 | > 50 | > 50 | > 50 | > 50 | 9.23 | 0.75 |  | 
1443_C16 (PG16) (TCN-116) (antibody) | > 50 | 0.04 | 1.59 | 0.1 | 1.42 | 0.002 | > 50 | 0.08 | > 50 | < 0.0025 |  | 
4E10 (antibody) | 1.32 | 4.97 | > 50 | 1.17 | 12.2 | 3.49 | 2.75 | 1.01 | 0.44 | 4.95 |  | 
VRC01 (antibody) |  |  |  |  |  |  |  |  |  |  | 0.36 | neutralization IC50 [11]: 0.088 µg/mL; IC50, pseudovirus neutralization [12]: 0.087 µg/mL; IC50, pseudovirus neutralization [13]: 0.056 µg/mL; IC50, pseudovirus neutralization [14]: 0.387 µg/mL; IC50, pseudovirus neutralization [15]: 1.89 µg/mL
PGT-122 (antibody) |  |  |  |  |  |  |  |  |  |  |  | IC50 neutralization [2]: 1.46 µg/mL; IC50 (µg/mL), pseudovirus neutralization [4]: > 50 µg/mL; IC50 (µg/mL), pseudovirus neutralization [17]: 0.036 µg/mL
PGT-143 (4980_N08) (antibody) |  |  |  |  |  |  |  |  |  |  | > 50 | 
PGT-142 (4995_E20) (antibody) |  |  |  |  |  |  |  |  |  |  | > 50 | 
PGT-121 (antibody) |  |  |  |  |  |  |  |  |  |  |  | IC50 neutralization [2]: 1.38 µg/mL; IC50 (µg/mL), pseudovirus neutralization [4]: > 50 µg/mL; IC50 (µg/mL), pseudovirus neutralization [17]: 0.014 µg/mL
1496_C09 (PG9) (TCN-109) (antibody) |  | 0.24 | 3.37 | 0.09 | 0.64 | 0.01 |  | 0.06 |  |  | 0.007 | IC50 neutralization [2]: 0.31 µg/mL; IC50 (ug/ml), neutralizing activity [3]: 0.31 µg/mL; IC50 neutralization [3]: 0.31 µg/mL; IC80, neutralization [3]: 1.95 µg/mL; IC90, neutralization [3]: 5.54 µg/mL; IC50 (µg/mL), pseudovirus neutralization [4]: 0.059 µg/mL; IC50 (µg/mL), pseudovirus neutralization [18]: 1.86 µg/mL; IC50 (µg/mL), pseudovirus neutralization [19]: 40.6 µg/mL; IC50 (µg/mL), pseudovirus neutralization [20]: 0.033 µg/mL; IC50 (µg/mL), pseudovirus neutralization [12]: 0.021 µg/mL
1495_C14 (PGC14) (antibody) | > 50 | > 50 |  | > 50 | > 50 | 12 | > 50 | > 50 | > 50 | 0.373 |  | 
b12 (antibody) | 49.1 | 6.92 | 47.3 |  | 0.07 | > 50 | > 50 | > 50 | > 50 | 0.06 |  | 
PGT-144 (4970_K22) (antibody) |  |  |  |  |  |  |  |  |  |  | > 50 | 
PGV04 (antibody) |  |  |  |  |  |  |  |  |  |  | 0.125 | IC50 (µg/mL), pseudovirus neutralization [4]: 1.29 µg/mL; IC50, pseudovirus neutralization [21]: 0.553 µg/mL; IC50 (µg/mL), pseudovirus neutralization [18]: 22.4 µg/mL; IC50 (µg/mL), pseudovirus neutralization [19]: 0.461 µg/mL; IC50 (µg/mL), pseudovirus neutralization [20]: > 50 µg/mL; IC50 (µg/mL), pseudovirus neutralization [12]: 0.088 µg/mL; IC50 (µg/mL), pseudovirus neutralization [13]: 0.02 µg/mL; IC50 (µg/mL), pseudovirus neutralization [14]: 0.179 µg/mL
PGT-141 (4964_G22; 4993_K13) (antibody) |  |  |  |  |  |  |  |  |  |  | > 50 | 
2F5 (antibody) | 1.27 | 1.92 | 46.6 |  | > 50 | > 50 | 1.61 | 1.26 | 1.78 | 2.41 |  | 
